± gives the standard deviation of the averaged measurements.
System: ATP
Experiment: switch fluorescence ratio, 500 uM ATP over buffer (Cy3 cluster intensity, sum of 5 cycles each) (fold (ratio)); higher = stronger signal-on switching upon ATP binding; sequences stand for … in TCGTCGGCAGCGTCAGATGTGTATAAGAGACAGTTTTTTTTTTTTTTTTTTTTTTTTT…TC
Conditions: aptamer strand: ATP DNA aptamer (quencher-CACCTGGGGGAGTATTGCGGAGGAAGG + anchor), 100 nM annealed; ATP concentration: 500 uM
How it was run: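 Values give the fluorescence ratio for each switch-domain sequence, averaged from per-cluster ratios of summed target-cycle to summed buffer-cycle Cy3 intensity. The Cy3-labelled switching-strand clusters sat on a modified Illumina MiSeq flow-cell, were annealed to 100 nM quencher-labelled ATP aptamer, and were imaged in selection buffer, then after 15 min with 500 uM ATP at 22 °C. Five cycles ran with NaOH stripping and re-annealing between them, and clusters outside 100-1000 RFU were excluded.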
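Also: ATP exposure 15 min at 22 °C before imaging.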

CGTACTTAGC
switch fluorescence ratio: 1.069 ± 0.0034

GTCTCATCAC
switch fluorescence ratio: 1.01 ± 0.056

TGGGTACAGC
switch fluorescence ratio: 1.02 ± 0.04

GATGCGTGCT
switch fluorescence ratio: 0.993 ± 0.055

TTTGGTAATG
switch fluorescence ratio: 1.01 ± 0.021

CTAATTTTGT
switch fluorescence ratio: 0.995 ± 0.014

TAATAATGGA
switch fluorescence ratio: 1.01 ± 0.035

TTGTAGGGAT
switch fluorescence ratio: 1.43 ± 0.77

TTTGGGGGGC
switch fluorescence ratio: 1.05 ± 0.12

GATTGAGGGA
switch fluorescence ratio: 1.01 ± 0.016

AGCTTGGGCA
switch fluorescence ratio: 1.02 ± 0.0095

TGAGTGTTAC
switch fluorescence ratio: 1 ± 0.028

TTGCGGTTGG
switch fluorescence ratio: 1 ± 0.076

TGTGGGAGAG
switch fluorescence ratio: 0.973 ± 0.038

CGGTTAGTTT
switch fluorescence ratio: 0.97 ± 0.034

TTTTCTGTGG
switch fluorescence ratio: 0.994 ± 0.035

ATTGAATCAT
switch fluorescence ratio: 1.005 ± 0.0033

TCTTCTAGCT
switch fluorescence ratio: 1.05 ± 0.019

GTAAGTCATT
switch fluorescence ratio: 1 ± 0.029

TGGTGGGTGG
switch fluorescence ratio: 1.03 ± 0.058

TCCCTAAAAG
switch fluorescence ratio: 0.9896 ± 0.0049

CATTTGTATT
switch fluorescence ratio: 1.01 ± 0.038

TAAGGGGCAT
switch fluorescence ratio: 1.04 ± 0.093

AAGAAAGGCT
switch fluorescence ratio: 0.982 ± 0.033

AATTCCGGTC
switch fluorescence ratio: 1.093 ± 0.0066

TGGGACACAG
switch fluorescence ratio: 1.004 ± 0.007

AGAGTGTAGG
switch fluorescence ratio: 1.08 ± 0.034

TATAGGACTA
switch fluorescence ratio: 1.01 ± 0.014

TGATGCAAGT
switch fluorescence ratio: 1.09 ± 0.032

GAGGTCTGGG
switch fluorescence ratio: 0.978 ± 0.015

TTATTGCACG
switch fluorescence ratio: 1.07 ± 0.068

TCTGAATGG
switch fluorescence ratio: 1.01 ± 0.033

AAGATTGTCG
switch fluorescence ratio: 1.14 ± 0.039

AATTTAGGGG
switch fluorescence ratio: 0.989 ± 0.03

TGGGGATCTA
switch fluorescence ratio: 1.002 ± 0.006

GACGAACATT
switch fluorescence ratio: 1.18 ± 0.21

ATTTGGGGTA
switch fluorescence ratio: 1.01 ± 0.024

GGCGCCATGA
switch fluorescence ratio: 1.034 ± 0.0036

GGGTACGCGA
switch fluorescence ratio: 1.222 ± 0.0097

TAAAAGCTGG
switch fluorescence ratio: 1.02 ± 0.078

TCGTATTGGG
switch fluorescence ratio: 1 ± 0.056

AAGATGGGGC
switch fluorescence ratio: 0.998 ± 0.038

CTCTAATCGG
switch fluorescence ratio: 1.018 ± 0.0097

TAGTTCTGAG
switch fluorescence ratio: 0.998 ± 0.006

TGGGGTGGGA
switch fluorescence ratio: 0.991 ± 0.029

CGGGGGCCAG
switch fluorescence ratio: 0.994 ± 0.038

TAGGGTAGTG
switch fluorescence ratio: 1.01 ± 0.021

GGTTCGTGGG
switch fluorescence ratio: 1.01 ± 0.02

CGATAGGCGT
switch fluorescence ratio: 0.9927 ± 0.0032

CGTTTTTAGT
switch fluorescence ratio: 1.002 ± 0.0072

TAACATACAT
switch fluorescence ratio: 1.18 ± 0.11

CGGTAGGAAC
switch fluorescence ratio: 1.01 ± 0.028

TAACTAAACT
switch fluorescence ratio: 1.12 ± 0.08

GGTTCTTCAA
switch fluorescence ratio: 1.01 ± 0.023

CAACTTTACC
switch fluorescence ratio: 1.16 ± 0.027

TTTCGTAGGA
switch fluorescence ratio: 1.28 ± 0.35

TATCGCGGTG
switch fluorescence ratio: 1.005 ± 0.005

AAATAAAGGG
switch fluorescence ratio: 0.987 ± 0.032

TAAGTTGGTT
switch fluorescence ratio: 1.06 ± 0.014

AGTCTGGATG
switch fluorescence ratio: 0.96 ± 0.02

TTTACTAGTT
switch fluorescence ratio: 1.03 ± 0.037

ATGGGCGCGG
switch fluorescence ratio: 0.9903 ± 0.0066

CTCTGTTTGC
switch fluorescence ratio: 1.803 ± 0.0037

ATCGGGGGAC
switch fluorescence ratio: 0.959 ± 0.021

TCCTTGACGA
switch fluorescence ratio: 1.06 ± 0.013

CATAACGGTT
switch fluorescence ratio: 0.98 ± 0.025

AAGGGAGAGG
switch fluorescence ratio: 0.985 ± 0.013

TGGGTAATTT
switch fluorescence ratio: 1.03 ± 0.055

GAAGGCCGGG
switch fluorescence ratio: 1.033 ± 0.0054

AGGGATTCGC
switch fluorescence ratio: 0.997 ± 0.011

TAATTGGTTG
switch fluorescence ratio: 0.982 ± 0.012

GGGCGGAGGG
switch fluorescence ratio: 0.998 ± 0.027

AGGGGTATTT
switch fluorescence ratio: 1.01 ± 0.041

TAAAGACAGC
switch fluorescence ratio: 1.006 ± 0.0073

AAGATGTTTT
switch fluorescence ratio: 1.01 ± 0.04

ATCAAGTGGT
switch fluorescence ratio: 0.9701 ± 0.006

TTCGAGGAAT
switch fluorescence ratio: 1.08 ± 0.099

GTTTGGGAAC
switch fluorescence ratio: 1.02 ± 0.019

ATTAGTGTTG
switch fluorescence ratio: 0.956 ± 0.022

GGCGGAACTA
switch fluorescence ratio: 1.01 ± 0.018

GTTGTTGGGG
switch fluorescence ratio: 0.974 ± 0.043

TTACGGTGGC
switch fluorescence ratio: 0.989 ± 0.045

GAGTGTTTGG
switch fluorescence ratio: 0.949 ± 0.034

CGAAGCATTT
switch fluorescence ratio: 3.73 ± 0.14

GCGCGTGAGC
switch fluorescence ratio: 1.061 ± 0.0011

TTCCATGGGA
switch fluorescence ratio: 0.9894 ± 0.0098

AGGACTGGCA
switch fluorescence ratio: 0.991 ± 0.038

GATTTCATCT
switch fluorescence ratio: 0.995 ± 0.032

TTAGGTCTCT
switch fluorescence ratio: 0.977 ± 0.025

AAAATTTATT
switch fluorescence ratio: 0.989 ± 0.018

TAAGTTTGGG
switch fluorescence ratio: 0.968 ± 0.04

AAATCCGATT
switch fluorescence ratio: 1.01 ± 0.011

GGGGTCTTCC
switch fluorescence ratio: 1.07 ± 0.041

GGGAATCCGG
switch fluorescence ratio: 1.02 ± 0.013

TTAGTGTTTG
switch fluorescence ratio: 1.02 ± 0.006

ATCCAGGTTT
switch fluorescence ratio: 1.1 ± 0.036

TTTCTAGGCA
switch fluorescence ratio: 1.01 ± 0.03

TGGATGGGGC
switch fluorescence ratio: 1 ± 0.012

GTGTCCACAG
switch fluorescence ratio: 1 ± 0.014

TGTGACTGCC
switch fluorescence ratio: 1.04 ± 0.055

CACCCGTGCT
switch fluorescence ratio: 1.09 ± 0.016

GTTGTGGTCA
switch fluorescence ratio: 0.9771 ± 0.0067

CTAGGGGATA
switch fluorescence ratio: 1.02 ± 0.014

TTAAAGTGAT
switch fluorescence ratio: 0.995 ± 0.036

GACATTTGCA
switch fluorescence ratio: 1.03 ± 0.023

AAGTTTATGC
switch fluorescence ratio: 0.977 ± 0.025

TATATTTGGT
switch fluorescence ratio: 0.996 ± 0.039

TTGGTGAGGG
switch fluorescence ratio: 0.978 ± 0.022

CTGTCCGGTA
switch fluorescence ratio: 1.056 ± 0.008

ACCGTTCTGA
switch fluorescence ratio: 1.016 ± 0.0092

AAGGCGGCAC
switch fluorescence ratio: 1.05 ± 0.02

GAGTGGTTTA
switch fluorescence ratio: 0.9913 ± 0.0096

ATTGATTGTG
switch fluorescence ratio: 0.983 ± 0.026

GTGTTCGGTA
switch fluorescence ratio: 0.9704 ± 0.0062

TTGAACTTTG
switch fluorescence ratio: 0.978 ± 0.061

TATCATAAGT
switch fluorescence ratio: 1.016 ± 0.0077

GAGTTTGGTT
switch fluorescence ratio: 0.98 ± 0.063

TTTCGGTCGC
switch fluorescence ratio: 1.003 ± 0.008

TGTTCTTGGG
switch fluorescence ratio: 0.985 ± 0.026

AAAAAGGGAG
switch fluorescence ratio: 1.01 ± 0.044

TTATGGGGTA
switch fluorescence ratio: 1.04 ± 0.049

ATTAATTTCT
switch fluorescence ratio: 1 ± 0.024

TGGGGGGTCA
switch fluorescence ratio: 0.993 ± 0.02

TCGTTTATTA
switch fluorescence ratio: 1 ± 0.089

TTGGTGTGAC
switch fluorescence ratio: 1.05 ± 0.065

ACGTCCTGCT
switch fluorescence ratio: 1.07 ± 0.011

ACTGAATTGG
switch fluorescence ratio: 1.001 ± 0.0029

TTGCGAGCTT
switch fluorescence ratio: 0.986 ± 0.061

TGGAATGGAA
switch fluorescence ratio: 0.9717 ± 0.0076

CGGTGCGGGA
switch fluorescence ratio: 1.01 ± 0.011

TTAAGTAATG
switch fluorescence ratio: 1.002 ± 0.0016

TCAGGTGAAT
switch fluorescence ratio: 1.32 ± 0.065

GGGGCTACTT
switch fluorescence ratio: 1.02 ± 0.013

CTTGGATGTT
switch fluorescence ratio: 0.987 ± 0.024

GGCCTGGGGG
switch fluorescence ratio: 1 ± 0.019

GACAGCCTTA
switch fluorescence ratio: 1.01 ± 0.0069

TGTAAACCGC
switch fluorescence ratio: 1.2 ± 0.16

AAGATTTTGA
switch fluorescence ratio: 0.936 ± 0.063

TTGCGGTTAG
switch fluorescence ratio: 1.012 ± 0.0017

GGGCTCAACT
switch fluorescence ratio: 0.9946 ± 0.0053

GGATAGGGGA
switch fluorescence ratio: 1.01 ± 0.017

GCCTTTTGCT
switch fluorescence ratio: 0.988 ± 0.018

AAAAGAAACC
switch fluorescence ratio: 1.13 ± 0.048

CTGGGTTCTC
switch fluorescence ratio: 0.989 ± 0.016

GCATGGCCTA
switch fluorescence ratio: 0.997 ± 0.021

ATAGGGGTGT
switch fluorescence ratio: 1.01 ± 0.062

CTTGGTTTTT
switch fluorescence ratio: 1.01 ± 0.022

CTGTTACTGC
switch fluorescence ratio: 1 ± 0.031

TAAGCGGCGC
switch fluorescence ratio: 0.989 ± 0.084

TTGAGATGGA
switch fluorescence ratio: 1.01 ± 0.0062

CCCGTAGTTA
switch fluorescence ratio: 1.19 ± 0.042

ACTTCGTATG
switch fluorescence ratio: 1.03 ± 0.011

TGTTAGGC
switch fluorescence ratio: 1.01 ± 0.05

GTTTTCATGG
switch fluorescence ratio: 0.996 ± 0.013

TCAGTTAAGG
switch fluorescence ratio: 0.9866 ± 0.0039

AGGCTTGGGT
switch fluorescence ratio: 0.982 ± 0.024

TTTACCGGAT
switch fluorescence ratio: 1.05 ± 0.024

CAGTGTGTAT
switch fluorescence ratio: 0.989 ± 0.013

GTTTATAAAG
switch fluorescence ratio: 0.9899 ± 0.0023

AGAATATTGG
switch fluorescence ratio: 0.982 ± 0.046

AAGATATCTG
switch fluorescence ratio: 1.01 ± 0.032

CGGAGTTAAT
switch fluorescence ratio: 1.66 ± 0.048

GAGGTGCCAG
switch fluorescence ratio: 0.992 ± 0.031

CTCCGGCGCA
switch fluorescence ratio: 4.19 ± 0.76

AGGGGGGGAA
switch fluorescence ratio: 1.01 ± 0.032

AGGGGTTCCG
switch fluorescence ratio: 0.979 ± 0.042

GCTTGGGAAC
switch fluorescence ratio: 0.993 ± 0.028

TTCTCGTGTG
switch fluorescence ratio: 0.974 ± 0.035

TCAGTAGAGA
switch fluorescence ratio: 0.995 ± 0.018

CCACATTGCT
switch fluorescence ratio: 1.21 ± 0.017

TTATTGGTCC
switch fluorescence ratio: 0.989 ± 0.045

GCCAGAGAGG
switch fluorescence ratio: 1.005 ± 0.0091

TTTTGACTGC
switch fluorescence ratio: 0.977 ± 0.05

TTTTGATATC
switch fluorescence ratio: 0.997 ± 0.012

TATTTAGGGC
switch fluorescence ratio: 1.04 ± 0.052

GAACTAACCA
switch fluorescence ratio: 1.09 ± 0.02

TTTCGATCTC
switch fluorescence ratio: 1.028 ± 0.0026

TAGTGAGGCT
switch fluorescence ratio: 0.996 ± 0.01

TCGTACTTAT
switch fluorescence ratio: 1.12 ± 0.18

TGTGGGGATA
switch fluorescence ratio: 0.9904 ± 0.0011

GTAATGGACC
switch fluorescence ratio: 1.03 ± 0.043

TTATAGATAT
switch fluorescence ratio: 0.994 ± 0.015

TCTAAAATG
switch fluorescence ratio: 0.972 ± 0.029

TGTGGAACGT
switch fluorescence ratio: 0.9813 ± 0.0082

TAGATTTATT
switch fluorescence ratio: 0.995 ± 0.028

TGACGCCTGA
switch fluorescence ratio: 1.02 ± 0.022

ACACAGAGTT
switch fluorescence ratio: 1.03 ± 0.014

TTGAATTGGG
switch fluorescence ratio: 0.999 ± 0.046

AAACTTTTAA
switch fluorescence ratio: 1.01 ± 0.019

TTTGCTCGCC
switch fluorescence ratio: 1.01 ± 0.04

GGGCCGGGAC
switch fluorescence ratio: 0.961 ± 0.01

GATCGAGGTC
switch fluorescence ratio: 1.0474 ± 0.001

ACAAGTAATA
switch fluorescence ratio: 1.06 ± 0.057

TAATCCCGGG
switch fluorescence ratio: 1.3 ± 0.4

GCAATTTGAT
switch fluorescence ratio: 1.01 ± 0.02

TGTTGGTCTG
switch fluorescence ratio: 0.978 ± 0.031

ATAATATTGG
switch fluorescence ratio: 0.995 ± 0.013

ACGGGGGACA
switch fluorescence ratio: 1.02 ± 0.035

TGTTTCGTGT
switch fluorescence ratio: 0.982 ± 0.032

ATTGTTATAT
switch fluorescence ratio: 1 ± 0.03
